# Data as given in the nanobody polyreactivity screen of Harvey et al. (2022).
# Experiment: yeast display, Sf9 membrane polyspecificity reagent, FACS + sequencing; frameworks hold sequencing errors
# In short: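 Genes from sorted yeast were amplified by colony PCR, read by MiSeq 2 × 250 sequencing and filtered on CDR length. These cells carried a synthetic nanobody library in Saccharomyces cerevisiae BJ5465 and were sorted by FACS into low and high (top ~1%) gates on anti-HA and streptavidin fluorescence. Polyreactivity is labelled according to the gate of origin.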
row,Sequence,polyreactivity (PSR sort gate)
1,QVQLVESGGGLVQAGGSLRLSCAASGSIFKYYAMGWYRQAPGKERELVAAINSGGDTYYADSVKGRFTISRDNAKNTVYLQMNSLKPEDTAVYYCAAYGYAGYAHRDMDYWGQGSQVTVSS,low polyreactivity
2,QVQLVESGGGLVQAGGSLRLSCAASGYIFDPNAMGWYRQAPGKERELVAAISGSGTSTYYADSVKGRFTISRDNAKNTVYLQMNSLKPEDTAVYYCAAAHDAGPVRYYYWGHGTQVTVSS,low polyreactivity
3,QVQLVESGGGLVQAGGSLRLSCAASGSTFWFNAMGGSRQAPGKERELVAAIPSRGGYTYYADSVKGRFTISRDHAKNTVYLQMNSLKPEDTAVYYCAADYRYSSRKVFHFDYWGQGTQVTVSS,low polyreactivity
4,QVQLVESGGGLVQAGGSLRLSCAASGSISPWYAMGWYRQAPGKERELVAAIRGNGGSTYYADSVKGRFTISRDNAKNTVYLQMNSLKPEDTAVYYCNAVYRRPIFYYWGQGTQVTVSS,low polyreactivity
5,QVQLVESGGGLVQAGGSLRLICADSRRTFVSYTMGWYRQAPAKERELVAAISSGGSTTYADSVKGRFTISRDNAKNTVYLQMNSLKPEDTAVYYGNARYGWSYWSKYDYWGQGTQVNVSS,high polyreactivity
6,QVQLVESGGGLVQAGGSLRLSCAASGSIFKHNAMGWYRQAPGKERELVATISESGGSTYYADSVKGRFTISRDNAKNTVYLQMNSLKPEDTAVYYCNTDYDYGWWDLGEYDYWGQGTQVTVSS,low polyreactivity
7,QVQLVESGGGLVQAGGSLRLSCAASGRTSEIYTMGWYRQAPGKERELVASINTNYADSVKGRFTISRDNAKNTVYLQMNSLKPEDTAVYYCNADDTIEFNYWGQGTQVTVSS,low polyreactivity
8,QVQLVESGGGLVQAGGSLRLSCAASGRTFGYYGMGWYRQAPGKERELVASINFSSGSTFYADSVKGRFTISRDNAKNTVYLQMNSLKPEDTAVYYCAARAKAVRTYAYNYWGQGTQVTVSS,low polyreactivity
9,QVQLVESGGGIVQAGGSLRLSCAASGGIFFPNAMGWYRQAPGKERELVAAISWSAGSTYYADSVKVRFTISRDNAKNTVYLKKISLIPEDTAVYYCAAAGSNYTVWYGYYYWGQGTQVTVSS,low polyreactivity
10,QVQLVESGGGLVQAGGSLRLSCAASGYIFVKNAMGWYRQAPGKERELVAAISTRGGRTYYADSVKGRFTISRDNAKNTVYLQMNSLKPEDTAVYYCAAVHQTSYYDANSYGYWGQGTQVTVSS,high polyreactivity
11,QVQLVESGGGLVQAGGSLRLSCAASGRTFGVYAMGWYRQAPGKERELVARIRYSGGTTRYADSVKGRFTISRDNAKITVYFQMNSLKPEDTAVYYCAARSGYFRSRFDYWGQGTQVTVSS,high polyreactivity
12,QVQLVESGGCLVQAGGSLRLSCAASGSTLGYYVMGWYRQAPGKERELFAAITGCGSTDYADSVKGRFTISRDNAKNTVYLQMNSLIPEDTAVYYCAAERTRTGQLFWWGPIYDYWGQGTQVTVSS,low polyreactivity
13,QVQLVESGGGLVQAGGSLRLSCAASGRIVYLNAMGWYRQPPGKERELVAAINTSGDSTYYADSVKGRFTISRDNAKNTVYLQMNSLKPVDTAVYYCAAYVIGPDQFIYDYWGQGTQVTVSS,low polyreactivity
14,QVQLVESGGGLVQAGGSLRLSCAASGRTFYFYTMGWYRQAPGKERELVAAITLSGVSTYYADSVKGRFTISRDNAKITVYLQMNSLKPEDTAVYYCNAVYIRPGYRRYDYWGQGTQVTVSS,high polyreactivity
15,QVQLVEAGGGLVQAGGSLRLSCAASGRTFPVNPMGGYRQAPGKERELVAAISKRAGSTYYADSVKGRFTISRDNAKNTVYLQMNSLKPEDTAVYYCAARWRVIYAEFDYWGQGTQVTVSS,high polyreactivity
16,QVQLQDSGGGLVQAGGSLRLSCAASGTIIWYSDLGWYRQAPGKERKFVAGIGFGSNSNFADSVRGRFTISRDNAKITVYLQMNSLKPEDTAVYYCEAVWFDYSTHRYWGQGTQVTVCS,high polyreactivity
17,QVQLVESGGGLVQAGGSLRLSCAASGFTFGGNAMGWYRQAPGKEREFVAAITRSGGSTYYADSVKGRFTISRDNAKNTVYLQMHSLKPEDTAVYYCAARRSYPLGYDYWGQGTQVTVSS,high polyreactivity
18,QVQLVESGGGLVQAGGSLRLSCAPSGSTLTSNAMGWYRQAPGKERELVAASRSGGSTNYADSVKGRFTISRDNAKNTVYLQMNSLKPEDTAVYYCNKDFLWQGYGYSRVSYDYWGQGTQVTVSS,low polyreactivity
19,QVQLVESGGGLVQAGGSLRLSCAASGRTFGYNAMGWYRQAPGTERELVAGITGTGGTTNYADSVKGRFTISRDNAKNTVYLQMNSLKPEDTAVYYCNKDYDVSSEKEPLGYWGQGTQVTVSS,low polyreactivity
20,QVQLVESGGGLVQAGGSLRLSCAASGFTFYKYTMGWYRQAPGKERELVAAISARGGSTYYADSVKGRFTISRDNAKNTVYLQMNSLKPEDTAVYYCAADYWRTYVLGYDYWGQGTQVTVSS,high polyreactivity
21,QVQLVESGGGLVQAGGSLRLSCAASGRIFGSYAMGWYRQAPGKERELVASIRSGGRTKYADSVKGRFTISRDNAKNTVYLQMNSLKPEVTAVYYCAVPIEWDYGYWGQGTQVTVSS,low polyreactivity
